The numbers were not newly measured in article PMC10024700, which cites them from elsewhere.

In data set [1] the target is Cadherin-23 EC1-2 (Mus musculus) (UniProt Q99PF4). Briefly: AUC.
The target in data set [2] is Protocadherin-15 EC1-2 (Mus musculus) (UniProt Q99PJ1). Briefly: ITC. Background: Isothermal titration calorimetry measures the heat released or taken up as one component is titrated into another.
Data set [3] has the same target. The experiment in a line: SPR.

A word on the Kd: it is the equilibrium constant for the complex coming apart. In the case of Cadherin-23 EC1-2 (from UniProt Q99PF4), the Kd in data set [1] is 18 µM; in data set [2] it was 2.9 µM; in data set [3], 0.84 µM.
